Laboratory results reported in the DeepSol protein solubility set.

experiment: soluble on expression in E. coli; label from the status in PepcDB or PDB records

Soluble on expression in E. coli, not soluble:
MGSDKIHHHHHHMSGGDAMAKAVKQPAPDAEQIVLAIDIGGSHVKILTSAGGAERRDDSGPDLTPQQMIDKVKKLAEGLSYDVISMGYPGPVRHNKPVLDPKNLGKGWAGFDFAAQFGKPVKVVNDALMQAIGSYEGGRMLFLGLGTGLGAAMVFDNVGQPMELAHLPYRKGRSFEDYVGERGLEKRGKKKWRKYVFDVVTRLRAALQPDYVVIGGGNVDKLDALPAEARRGDNTRAFEGGFRLWRDKALIV
MGSDKIHHHHHHMSGKGAEYWTKRISEQEMPALSSTVKTLEKLAKDDVSSLAILGRSVMHDNALTSRILKVANSAIYNKGISHVTTVSRAAVVLGFDTIRNICITAKLLSSLLENKGLSEPVYHRLLTLMARAFQAAMLAKMMLKDHDEELQEEVFIAALLYHLGESAFWSMGGETTEQLDARLNQVDEKDANNVVREVLGTSFTQLSMGIAKNWGLGEVLVKSLSNPNERTPEIRSIYLANKISELMASDSKDIAELNHRIKQAADMLDLEVDEFKGRMIQCSHATRKLADTYGAKVLVAFLPDTHQLTLAAEPEAEPIKVREFNVDLQLKKLRELTDCAINKANFNEVITITLSGLLDGIGMDRCAVMLLSPNRKRLQPRVVLGENGDKMKNEFIVELNHDKNVFAESVDLKKPLFIDNPSSEKWRLYTDEELRRHTSVMGFMLAPILVDNKVIGLLYADRHSSERKLAEVDFERFTHFAQLTNLCLSVSVH
MGSDKIHHHHHHMSHLQTSNLPFKQRVDQQVHNEIMRKAVVNAQETIGQNRQKMVDELGHWEEWRDLSKQFRNHVLANLDAYLYQLSEKVKQNGGHVFFAETAEEATAYIRKVALAQKAKTIVKSKSMVTEEIGMNHVLEAEGINVVETDLGEYLLQIVGDKPSHIVVPAIHKDRHRIRKELHEKLGYTGSEQPEEMNAFVRKTLRKDFLNADIGISGCNFAVAETGSVCLVTNEGNLRLATTLPKTHIAVMGMERLAPTFKEVDALITMLCRSAVGAKLTAYNTWLTGPRLEGETDGPEDFHLVIVDNGRSKILASEFAEVLRCIRCGACLNTCPAYRQIGGHGYGSIYPGPIGAVISPLLGGYDEFKDLPYACSLCTACNSVCPVKIPLAQLILKHREKLVEEGRTPKGEQLAIKGFSFANSHPSLWGAGVKIGAKIAAKFIKNGKAPLQPGALGEWTKARDLPNPEGQSFREWFANRK
MGSDKIHHHHHHMSILTVSNLSHGFGDRAIFEDVSFRLLKGEHIGLVGANGEGKSTFMNIITSQLEPDEGKVEWAKHVRVGYLDQHAVLSKGLTIRDALKGAFQYLFDIEQEINDLYTKMGEVEPDELEKMLEEVGVLQDILTNNDFYTIDAKVEEIARGLGLDEIGLDRDVQELSGGQRTKILLAKLLLEKPDILLLDEPTNYLDVQHIEWLKRYLNDYENAFILISHDIPFLNSVINLIYHMENQGLNRYVGDYDNFLTVHEAKKKQHESAFKRQQQEISELKDFVARNKARVSTRNMAMSRQKKLDKMDVIELAQERPKPEFHFQTARTPSKLMFEAKGLVIGYDEPLSRPLDLMIERGQKIALHGANGIGKSTLLKSLLGEIPSVSGTVERGENLHIGYFEQEIKEKNSNTCIEEIWGTFPSLTQQQVRAMLAKCGLMTKHIESKIEVLSGGEKAKVRLCKLMNTESNILVLDEPTNHLDVEAKEELKRALQEYKGTVLLISHEPEFYEAVATDLWNCESWTTKVF
MGSDKIHHHHHHMSIMNFSEYQTQALKTDQIPAVEGTELMIPLLGLVGEVGSLMTEYKKHLRDGDAHKLFKEGIAEELGDMLWYISNLASKFNLNLEEIAEDNLRKCRDRWGWRDSAQIEDKGTTYIFDNDFPENESLPRQFEVEITEISKDNSIKMKAFINKKQVGNDLTDNSYTSDGYRFHDVFHFSYAAVLGWSAVTRSMLKRKRKSNSSIDEVEDGGRAIAIEEGISALIFSYAKNHGFLERVSTLDYQILKTIKNMTCHLEVSQCSLGDWEKAILMGYDVWRQVEKNRGGRVVLDLDARLITYLKKSSLCSASVEIKH
MGSDKIHHHHHHMSKANFPTDPALTAIAIAYRNRRMIADEVLPRTPVAKQEFTYLHYNLGEGFTVPNARVGRTSRPNQVEFGATQLTSSTEDFALDAPVPLVDIANKPTNYNPKGRATEQTTNLIELGREVRTANLVFNKKSYANGLTKTLSGNNQWSHDDSKPIADLLSALDTPVMRPNIMVLGQKAATALRTNKSIIKAYNGSLGDEGLVPLEYLKELFELEDIYVGQALINTVNQAKKAVLQQAWGNHCALIYRDRLADTNGGTTFGLTAQFGSREVRDIFDENMGMRGGYNVRVGESVKELITAPDLGFFLENVIA
MGSDKIHHHHHHMSKIVEVSKSPYAKLKTIPVGSVRVNGFMGKYFETLVNVTLPTQYDLLENTGRLDNFRIAAGKMEGSYKTLFPFDDTDVYKWAETVSFALANRKLPELEKILDSVIEEVKAAQDEDGYLGTYLSGDRKKERWTNLAWNHELYNAGHLIQAAVAHRRVTGKNTLFEVAKRFADHIYNTFGPEKKEGAPGHPEVEMALVELYRETGDRKYLDLARYFIYARGKGLASVPRNPGPEYFIDHKPFVELEEITGHAVRALYLCSGATDLYLETGDEKIWQALNRLWENFVTKKMYITGGAGSRHDWESFGEEYELPNRRSYAESCASIANFMWNFRMLLATGDGKFADVMEQVLYNGLLSGISLDGKHYFYFNPLEDYGRTRRQKWFDCACCPPNLARFIVSFPGYMYTTSDDGVQVHLYEKSTARLDFKGSVVEIEQETDYPWSGEVAFTIKTDIEEPFSIYLRLPSWADDFVLRVDGKAVIAKPQNGYVKLSQSWKGKHTVELSLPMKAVFIEAHPFVRDDLGKAAVKRGPVVYCIEQADNPDFHVWTLVLNSESLKEEKGKILDREAVFLKGTGRALDISEWEGKLYRKLSEVREKTVEFTLIPYHMWANREPGAMAVWLKR
MGSDKIHHHHHHMSKKQEEIAIKEQRLLSMMEENELEGICLSRAANFAWLTAGSNNRVVWGQETGAAALVIVEGRKFLVAPQNEIERLMLEQVADLGFEPWTYEWYEDRQQAIARLVGNKKIGSDIPLGNWPVIEAELKRLRFSLTDHEVERAEKLAAICSDDLAAVCQAIVPGWSEWNIQVELSNRLLKQGVRASVLLVGADDRTRFKHPLPTLNPVCNYVIIGLVGEQCGLHMALTRSIYFGRVPEALRQNYNCCLAVERTYWENSVVDADSQKVFQQGINAYADLGHPEEWKRHHQGGAIGYAPREFRAGEGRREVMQDRQMLAWNPTVENTKCEDTCLVTPTGLKSMTTVPSWWPTTTVKAGNINFLRPLILEK
MGSDKIHHHHHHMSKLKDYNIDKVIIFNNLSTKTKNQLKEKVKLKRLQKKEILFYEKDSLDSVYILLEGKVSIFKISENGERKVIFILNSGEVINDITLDASKNSTVGCEAFENSIVAYYSIEEFLEIMQNDFQLTKDIISYMERRIRRLYRQLKNSISIKVDKKLAAKLYRLSREFGVCCGEWTLLNVNITVTYLADMLGCKRETVSRMIKVLQKEELIKIDNKGFYVKETELSRYFKNN
MGSDKIHHHHHHMSKSHAVVHSALADEASQHNNTLSWFDITPADQERVRSLAPIADHVGEEIIADFYAHILRFEDAAQQFADDTQIERVKRGQKKYFQELINAELDESYAEERKRIGGIHERAGITPTLYVGSYAYYLQRLSQSILENGKEDPHKLFGLVLSMMKIAHYDMALALETYVEAREKTIEIHERQMRELPTPVLELREGLLLVPVVGALDSHRARTLTMQLLDGIRDTRSRAVVLDITGAVSIDSSVANHLFQAMTAARLMGAKSILAGISPTVAQELFRIGVDTKTFTTARNLQQGIELAASALEAHSKHSV
MGSDKIHHHHHHMSKTLSILVLHRVPFENVGYDQVIDHDLHQVTYLGLASPMSKLPKDLPCHKVVIEQLDLLVDSAVALTQEQGIEFDYIIGVSEYQLFDAALIRERLNIQGPKPHDVLRVRDKLVMKHQVQAAGLHVPRFFELAEVMTQELTGLQQLILKPKDGASSENVIKYADLEALRSAITSSATGIPVLDNDKNFKNFEVEEFVEGPILHLDGIVQGGVIDTFVASTYEGTCLAFAEGEALGSYQIQTEPRLMDWAQAVITALAIDSGAFHLEVIESGERLVFLEIGHRAGGANVVRTFELRTGINLHHANLATQLRLPIHRQEVNTHKSYGWFVFPGHHYDWDKCRLEGHEDIKIHHQMFEWNQLSNEQPLTKHITYQKKEVPAAGIIQGDDSIQVQNFMQRVLQYIQVQEAV
MGSDKIHHHHHHMSKYESEVVVDGFHYLEGPRWYKDALWFVDFYTKGVYRVNDESVAEKIVHVEQQPSGLGWLPDGRMLIVSMKDRKVLRLEDNGELVVHADIWDHCEGHANDMVVAPNGNAYVGNFGFDLMGGADHKQTGLVLVKPDGNSQIVAEGLAFPNGMVISADEKTLIVNELFGNKISQFDINADGTLGEKRDFANFGDLGDEPNLGARIENANILPDGLALDSEGAVWIADTLNQRAVRISEGGEILDIVNTAPDGIFAVALGGQNGKTLFMCAAPDWDEASRTAETKGRMLSTQVKVGHAGTP
MGSDKIHHHHHHMSLIFDIKRYAINDGPGIRITLFMKGCPLSCIWCHNPEGIRNGKDKLYTAKKCLGCGTCLKVCPNGALTLTPEGIITDKQKCVLCGRCAEECPAMAIEISGTEYTAEYLMHEIEKEIPFMDQSGGGVTFCGGEPLLHPEFLIDILKRCGQQGIHRAVDTTLLARKETVDEVMRNCELLLIDLKSMDSTVHQTFCDVPNELILKNIRRVAEADFPYYIRIPLIEGVNADEKNIKLSAEFLASLPRHPEIINLLPYHDIGKGKHAKLGSIYNPKGYKMQTPSEEVQQQCIQILTDYGLKATIGG
MGSDKIHHHHHHMSLKAKLARKFVYAVFPDVRKYTSIKPAFENSPDSPEGRLVPEVVALYGKPGVHILKMALVLPYLVGTAYYARKSVTSVRRNPGKGKKTAPPEFFEELESYAKSLGVLKVGYTKLTPELVFSNRAVLFENAIVLIGEMRKKEIAKAPGVRAGMEVWRTYYRLTRAAYKIAEFLRERGYNAQPDPAVGRSTNFPLLAQKAGLDHIGKHGLLITPENGPSVRIGAVYTDLELPYTDERVREHGWIPHFCDRCNACVRACPAQAIYITPRRENGREVHIDYKRCAVIFSRTLGCSICVKECTFTKGSYEKIKRVHEKIRNR
MGSDKIHHHHHHMSLKTSDVKFKDRIQTQIHDPIMRKAVANAQERIGANRQKMVDELGHWEAWRDHAAQIREHVLNNLDAYLYQLSEKVTANGGQVYFAKTKEDATRYILQVAQANHAKKVVKAKSMVTEEIGMNHVLQQAGIEVIETDLGEYILQLDQDPPSHVVVPAIHKDRYQIRKVLHEKLGYDGPETPEAMTLFIRKKIREDFLSAEVGVTGCNFAVAETGSVCLVTNEGNARMCTTLPKTHIAVMGMERIAPTFEEVDVLITMLARSAVGARLTGYNTWLTGPREAGHVDGPQEFHLVIVDNGRSQILGSAFRDILRCIRCGACINTCPAYRHIGGHGYGSIYPGPIGAVISPLLGGYQDFKELPYACSLCTACDTVCPVHIPLSSLILKHRRVMAESGITPKAEQRFTKLFSYVNSHPMLWKVGMIAGAHAAGWFIKNGKTRIEMGAIGEWTEARDLPDADGESFRSWFKKHQARGKK
MGSDKIHHHHHHMSLNQPPHTRLRHDNPRSPNTFPSRAKVVGAEDLATTSNASTGHGFNLARPVHRNREPATPAPRVVEGANRRRSACEQDISHRHEKIYNWAPAPNTRQGQPTRRLTSRSGPKEREHAARTPRTALQCQRVLALGRVRTCASCGRGSEVLLRGLCPECFDRRYGVVEGLPWELVVDVCTSCGRVRIGHKWLEYATAEEAVGLMLSSMSLKPVHPVERVELEDWALETRLDWRTRVRLRFRANYRDTLFRVSRVIVLRLNPSTCPLCIVRRSGEYDTLVQVRGYRAGEAVEKTLNSLDPREAPIDVVPVRGGVDVYFHHRGAAARFVSRLASTARVRVSRVEHEHVGTSSLGRRRSRKTILVRLEGLTGERGE
